Assay results: article PMC8431961 (Science (New York, N.Y.), 2021)

Target: the molecule itself
Experiment: SEC + other: electron microscopy

Protein | binding result
MmPNMA3 (natural protein, mouse, UniProt Q8JZW8 1-466, looked up) MPLNLLQDWCRGEHLNTQRSMLILGIPEDCSEDEFEETLHEALKHLGRYRIIGRMFRREENAQAFLVELARDFDYALVPREIEGKGGPWEVVVKPPHSDDEFLNRLNHFLEEERRTVSDMNRVLGTHSNHSPTKTTISADFWVWAQTLGAVMQPLLEQMLYRELRVFSGNTISIPGLLAFDSWLEHTTEMLQMWQVPEVEKRRRLMECLRGPALQVVNVLRANNAAITVKECLEALRQVFGSVDNRKIAQLKFCKAYQEPGEKVSSFVVRLETLLQKALEKNAISRKNVNQTRLKRILGGAILSAKLREKLKMLKQRRRPPGFLALVKLFREEEEEWEATRGSERSCYEGLELGPSPSNIGSEERELFVPAFGSVLEERPYQGSRRRRHRRRGQHRKGGVPRDDSQGTRKQNYDTFCYSCGEDGHIRVHCFNPSNRTLVKQKRQAAMEKGNRSWAWEKSHPKPKTK | binds
MmMOAP1 (natural protein, mouse, UniProt Q9ERH6 1-352, looked up) MTLRLLEDWCRGMDMNPRKALLVAGIPPTCGVADIEEALQAGLAPLGEHRLLGRMFRRDENKNVALIGLTVETGSALVPKEIPAKGGVWRVIFKPPDTDSDFLCRLNEFLKGEGMTMGELTRVLGNRNDPLGLDPGIMIPEIRAPMLAQALNEALKPTLQYLRYKKLSVFSGRDPPGPGEEEFESWMFHTSQVMKTWQVSDVEKRRRLIESLRGPAFEIIRVLKINNPFITVAECLKTLETIFGIIDNPRALQVKYLTTYQKTDEKLSAYVLRLEPLLQKLVQKGAIEKEVVNQARLDQVIAGAVHKSVRRELGLPEGSPAPGLLQLLTLIKDKEAEEEEVLLQAELEGYCT | binds
MmPNMA5 (natural protein, mouse, UniProt Q5DTT8 1-618, looked up) MAVALLDDWCKGMDLDPKKAVLIVGIPVQYTEAAINDALKEGLPPLCAYKVIGRMFRREDEAKAVLIELPEVVDYTMMPTHIPAEGGAWEVVVKPRSPDDEFMNKLIYFLRDEGRRIVDVAKALGFSTVPTGKIELKNLDQDKPKGLKSLCNNSTCYKKLKVFSGSPFPGPGEESFETWLEEVTELMQLWQVSEREKKQCLLESLRGSALSIMQALWTSNDSLTVEQCLKALKHIFGNKEDSKVLQFRFLQSSQKPAEKVSDYLLRLEPLLQKAVQQSPLSAHSADSIRLKHVLSQVSMTTGLRGKLSLLDQQGCPPTFLELMKLTRDEEEWESTVVVEEQEQVRRDSSACEAANEVVTQAEDSREVSTQTTGEEMTSVKRRRLLWRHSAGEEGQRKESGFWAESEPDEQKPYVRAQESGNERGAWAVSHPNPKEIEAQDSQEFLPVAGNRDTLTKSWGSPDKGTGDMSVAEGQQGQGKAPNFLLARNDPNKQEQIPHSSVTTKWQDRGECQRLKWGASMITRPQGNPDRSWDTSGSQDGEDGCSELRMPTGTEAAQGVEEPATGLSWAEDTSAWEQARLGRETVPRRGGRRIQPVFRIIYTALGEPHEGSTLESFRE | binds
